{"source": "patent US20080213836", "proteins": {"B1": {"name": "Medaka EP-1 serine protease domain mutant K63A (protein)", "chain": "VVGGVNAEKGAWPWMVSLHWRGRHGCGASLIGRDWLLTAAHCVYGANTHLQYWSAVLGLHAQSSMNSQEVQIRQVDRIIINKNYNRRTKEADIAMMHLQQPVNFTEWVLPVCLASEDQHFPAGRRCFIAGWGRDAEGGSLPDILQEAEVPLVDQDECQRLLPEYTFTSSMLCAGYPEGGVDSCQGDSGGPLMCLEDARWTLIGVTSFGVGCGRPERPGAYARVSAFTSWIAETRRSSFSDLD"}, "B2": {"name": "Medaka EP-1 serine protease domain mutant K63E (protein)", "chain": "B1 chain with A46E"}, "B3": {"name": "Medaka EP-1 serine protease domain mutant T105R (protein)", "chain": "B1 chain with A46K, T88R"}, "B4": {"name": "Medaka EP-1 serine protease domain mutant T105A (protein)", "chain": "B1 chain with A46K, T88A"}, "B5": {"name": "Medaka EP-1 serine protease domain mutant F144S (protein)", "chain": "B1 chain with A46K, F127S"}, "B6": {"name": "Medaka EP-1 serine protease domain mutant F144A (protein)", "chain": "B1 chain with A46K, F127A"}, "B7": {"name": "Medaka EP-1 serine protease domain mutant E173K (protein)", "chain": "B1 chain with A46K, E156K"}, "B8": {"name": "Medaka EP-1 serine protease domain mutant P193A (protein)", "chain": "B1 chain with A46K, P176A"}}, "note": "Changes are numbered by the printed parent chain. Names and notes keep the numbering of the source.", "data": [{"target": "T1, Boc-Glu(OBzl)-Ala-Arg-MCA", "T1 chain": "EAR", "values": [{"protein": "B1", "enzyme activity against wild-type": "The same held true for all the other mutants except for F144A"}, {"protein": "B2", "enzyme activity against wild-type": "The same held true for all the other mutants except for F144A"}, {"protein": "B3", "enzyme activity against wild-type": "The same held true for all the other mutants except for F144A"}, {"protein": "B4", "enzyme activity against wild-type": "The same held true for all the other mutants except for F144A"}, {"protein": "B5", "enzyme activity against wild-type": "consistently resulted in reduced enzyme activity for synthetic peptide substrates"}, {"protein": "B6", "enzyme activity against wild-type": "hydrolyzed the GD4K-βNA as well as the three MCA-containing substrates at an elevated rate when compared with the wild-type enzyme"}, {"protein": "B7", "enzyme activity against wild-type": "consistently resulted in reduced enzyme activity for synthetic peptide substrates"}, {"protein": "B8", "enzyme activity against wild-type": "The same held true for all the other mutants except for F144A"}]}, {"target": "T2, Gly-Asp-Asp-Asp-Asp-Lys-β-naphthylamide", "T2 chain": "GDDDDK", "values": [{"protein": "B1", "enzyme activity against wild-type": "The same held true for all the other mutants except for F144A"}, {"protein": "B2", "enzyme activity against wild-type": "The same held true for all the other mutants except for F144A"}, {"protein": "B3", "enzyme activity against wild-type": "The same held true for all the other mutants except for F144A"}, {"protein": "B4", "enzyme activity against wild-type": "The same held true for all the other mutants except for F144A"}, {"protein": "B5", "enzyme activity against wild-type": "consistently resulted in reduced enzyme activity for synthetic peptide substrates"}, {"protein": "B6", "enzyme activity against wild-type": "hydrolyzed the GD4K-βNA as well as the three MCA-containing substrates at an elevated rate when compared with the wild-type enzyme"}, {"protein": "B7", "enzyme activity against wild-type": "consistently resulted in reduced enzyme activity for synthetic peptide substrates"}, {"protein": "B8", "enzyme activity against wild-type": "The same held true for all the other mutants except for F144A"}]}, {"target": "T3, Pro-Phe-Arg-MCA", "T3 chain": "PFR", "values": [{"protein": "B1", "enzyme activity against wild-type": "The same held true for all the other mutants except for F144A"}, {"protein": "B2", "enzyme activity against wild-type": "The same held true for all the other mutants except for F144A"}, {"protein": "B3", "enzyme activity against wild-type": "The same held true for all the other mutants except for F144A"}, {"protein": "B4", "enzyme activity against wild-type": "The same held true for all the other mutants except for F144A"}, {"protein": "B5", "enzyme activity against wild-type": "consistently resulted in reduced enzyme activity for synthetic peptide substrates"}, {"protein": "B6", "enzyme activity against wild-type": "hydrolyzed the GD4K-βNA as well as the three MCA-containing substrates at an elevated rate when compared with the wild-type enzyme"}, {"protein": "B7", "enzyme activity against wild-type": "consistently resulted in reduced enzyme activity for synthetic peptide substrates"}, {"protein": "B8", "enzyme activity against wild-type": "The same held true for all the other mutants except for F144A"}]}, {"target": "T4, Z-Phe-Arg-MCA", "T4 chain": "FR", "values": [{"protein": "B1", "enzyme activity against wild-type": "The same held true for all the other mutants except for F144A"}, {"protein": "B2", "enzyme activity against wild-type": "The same held true for all the other mutants except for F144A"}, {"protein": "B3", "enzyme activity against wild-type": "The same held true for all the other mutants except for F144A"}, {"protein": "B4", "enzyme activity against wild-type": "The same held true for all the other mutants except for F144A"}, {"protein": "B5", "enzyme activity against wild-type": "consistently resulted in reduced enzyme activity for synthetic peptide substrates"}, {"protein": "B6", "enzyme activity against wild-type": "hydrolyzed the GD4K-βNA as well as the three MCA-containing substrates at an elevated rate when compared with the wild-type enzyme"}, {"protein": "B7", "enzyme activity against wild-type": "consistently resulted in reduced enzyme activity for synthetic peptide substrates"}, {"protein": "B8", "enzyme activity against wild-type": "The same held true for all the other mutants except for F144A"}]}, {"target": "recombinant fusion protein of Medaka trypsinogen", "values": [{"protein": "B1", "conversion of trypsinogen to active enzyme": "A total of 12 mutants could convert the recombinant Medaka trypsinogen to its active enzyme (data not shown)"}, {"protein": "B2", "conversion of trypsinogen to active enzyme": "A total of 12 mutants could convert the recombinant Medaka trypsinogen to its active enzyme (data not shown)"}, {"protein": "B3", "conversion of trypsinogen to active enzyme": "A total of 12 mutants could convert the recombinant Medaka trypsinogen to its active enzyme (data not shown)"}, {"protein": "B4", "conversion of trypsinogen to active enzyme": "A total of 12 mutants could convert the recombinant Medaka trypsinogen to its active enzyme (data not shown)"}, {"protein": "B5", "conversion of trypsinogen to active enzyme": "A total of 12 mutants could convert the recombinant Medaka trypsinogen to its active enzyme (data not shown)"}, {"protein": "B6", "conversion of trypsinogen to active enzyme": "A total of 12 mutants could convert the recombinant Medaka trypsinogen to its active enzyme (data not shown)"}, {"protein": "B7", "conversion of trypsinogen to active enzyme": "A total of 12 mutants could convert the recombinant Medaka trypsinogen to its active enzyme (data not shown)"}, {"protein": "B8", "conversion of trypsinogen to active enzyme": "A total of 12 mutants could convert the recombinant Medaka trypsinogen to its active enzyme (data not shown)"}]}]}
